Laboratory results from article PMC3596245.
Where two headings read alike, the source gives them in different places.

Columns and labels:
[1] = target: NMMIIA rod filaments (residues 1338-1960) (human) (UniProt P35579); experiment: co-sedimentation
[2] = target: NMMIIA rod filaments (residues 1338-1960) (human) (UniProt P35579); experiment: co-sedimentation; remark: listed apart in the source

Substance | Kd [1] | Kd [2]
GST-gelsolin N-terminal half (G1-G3) (domain or fragment) | 495 nM | 220 nM
GST-gelsolin C-terminal half (G4-G6) (domain or fragment) | 1310 nM | 212 nM
GST-gelsolin full-length (G1-G6) (from UniProt P06396 28-782) (natural protein) | 423 nM | 158 nM
